These results are taken from US20250195614A1 (IMMUNITYBIO, published 2025).

For experiment [1], the target named is IL2Rβ and common γ chain on 32Dβ cells. Briefly: cell-based or functional assay.
The target in another experiment is TGF-β1 (UniProt P01137 279-390). Briefly: cell-based or functional assay.
TGF-β1, sequence (P01137 279-390 limits assumed): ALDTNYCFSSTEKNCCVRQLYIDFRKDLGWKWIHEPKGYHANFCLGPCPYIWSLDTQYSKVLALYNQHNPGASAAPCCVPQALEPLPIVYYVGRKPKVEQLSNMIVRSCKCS

In experiment [1], “recombinant IL-15 (from UniProt P40933 49-162) (ligand)” returned an EC50 (printed as IC50), IL-15 activity on IL-15 dependent 32Dβ cells (WST-1, OD450) of 0.0818 nM and an EC50, 32Dβ cell proliferation (WST1, absorbance 450 nM) of 0.0106 nM.

B1: commercial TGF-β1 receptor II-Fc fusion (TGFRII/Fc, R&D Systems) (Fc fusion, UniProt P37173 24-159, looked up, not shown: a dimerising Fc or GST)
chain: IPPHVQKSVNNDMIVTDNNGAVKFPQLCKFCDVRFSTCDNQKSCMSNCSITSICEKPQEVCVAVWRKNDENITLETVCHDPKLPYHDFILEDAASPKCIMKEKKKPGETFFMCSCSSDECNDNIIFSEEYNTSNPD
Take B1: in the experiment with TGF-β1, the “IC50, TGF-β1 blocking activity in HEK-Blue TGF-β cells (OD620)” value stood at 0.47 nM; the “IC50, inhibition of TGFβ1 (0.1 nM) activity in HEK-Blue TGFβ cells (QUANTI-Blue OD 620-655 nM)” value turned out to be 0.461 nM; the “TGF-β1 blocking activity against that of TGFRt15-TGFRs or TGFRt15*-TGFRs (HEK-Blue TGF-β cells)” value was roughly 10 fold.
